Consider 21 molecules from patent publication US5622828, “High-affinity oligonucleotide ligands to secretory phospholipase A2 (sPLA2)” (Nexstar Pharmaceuticals, Inc.).

Data set [1] addresses T1, secretory phospholipase A2 (sPLA2) (Homo sapiens, UniProt P14555 P14555:21-144).
T1 sequence: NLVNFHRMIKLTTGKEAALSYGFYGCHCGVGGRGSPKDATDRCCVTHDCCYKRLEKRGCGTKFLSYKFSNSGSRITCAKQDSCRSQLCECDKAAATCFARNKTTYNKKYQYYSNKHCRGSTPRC
In words: filter; biphasic, Kd2 200 nM, mole fraction 0.20; calcium dependent; TBSC, 37 C. The note with it: tags: supplied by Eli Lilly. The method, then:
(§1) The nitrocellulose filter partitioning method was used as described in SELEX Patent Applications to determine the affinity of RNA ligands for sPLA_2 and for other promins. Filter discs (nitrocellulose/cellulose acetate mixed matrix, 0.45 µm pore size, Millipore) were placed on a vacuum manifold and washed with 5 ml of TBSC buffer under vacuum. Reaction mixtures, containing ^32P labeled RNA pools and sPLA_2, were incubated in TBSC for 5 minutes at 37° C., filtered, and then immediately washed with 5 ml TBSC. The filters were air-dried and counted in a Beckman liquid scintillation counter without fluor.
(§2) The dissociation constants for representative members of families I–VI, orphan and other ligands were determined by nitrocellulose filter binding experiments and are listed in Table III. Unlike random RNA, all tested ligands from the 2'OH SELEXes bound biphasically.

Data set [2] addresses T1, secretory phospholipase A2 (sPLA2). Put plainly: filter; biphasic, Kd2 62 nM, mole fraction 0.50; TBSC, 37 C. The note with it: tags: supplied by Eli Lilly. On the procedure: as §1, §2
Data set [3] has the same target. In words: filter; biphasic, Kd2 250 nM, mole fraction 0.30; TBSC, 37 C. The conditions noted are these: tags: supplied by Eli Lilly. On the procedure:
as §1, §2

Data set [4] has the same target. Put plainly: filter; biphasic, Kd2 43 nM, mole fraction 0.25; TBSC, 37 C. The note with it: tags: supplied by Eli Lilly. On the procedure: as §1, §2
The target is the same in data set [5]. Put plainly: filter; biphasic, Kd2 82 nM, mole fraction 0.50; TBSC, 37 C. The note with it: tags: supplied by Eli Lilly. The method, then:
as §1, §2

The target is the same in data set [6]. Put plainly: filter; biphasic, Kd2 140 nM, mole fraction 0.65; TBSC, 37 C. The note with it: tags: supplied by Eli Lilly. The method, then:
as §1, §2

Data set [7] has the same target. In words: filter; biphasic, Kd2 170 nM, mole fraction 0.65; TBSC, 37 C. The note with it: tags: supplied by Eli Lilly. The method, then:
as §1, §2

Data set [8] shares this target. Put plainly: filter; biphasic, Kd2 92 nM, mole fraction 0.60; TBSC, 37 C. The note with it: tags: supplied by Eli Lilly. On the procedure:
as §1, §2

Data set [9] has the same target. In words: filter; biphasic, Kd2 720 nM, mole fraction 0.40; TBSC, 37 C. The conditions noted are these: tags: supplied by Eli Lilly. The method, then: as §1, §2
The target is the same in data set [10]. In words: filter; biphasic, Kd2 1320 nM, mole fraction 0.50; TBSC, 37 C. The conditions noted are these: tags: supplied by Eli Lilly. The method, then:
as §1, §2

The target in data set [11] is pancreatic phospholipase A2 (bpPLA2) (Bos taurus, UniProt P00593 P00593:23-145). Put plainly: filter; specificity control, like random RNA; TBSC. On the procedure:
(§3) The affinity of sPLA_2 ligands 2, 72, 80, 87, NN19 and NN19.15 (SEQ ID NOs.:11, 20, 53, 54, 64, and 117, respectively) for proteins other than sPLA_2 was determined by nitrocellulose partitioning (Tables IV and V). Like sPLA_2, hen egg white lysozyme, bFGF and elastase are small, highly cationic proteins. Bovine pancreatic PLA_2 is an evolutionarily and structurally related enzyme. […] Specificity is particularly well illustrated by the affinities for bovine pancreatic PLA_2 which is 10^4-fold less than that for human sPLA_2.
(§4) *Standard binding experiments were performed to the specified target protein in TBSC and K_d's is calculated by curve fitting. The ligands bind no better than randomized RNA (30N1) to lysozyme (hen egg-white), human basic fibroblast growth factor basic (bFGF) and bovine pancreatic PLA₂. The sPLA₂ K_d that of the high affinity species.

For data set [12], the target named is T2, basic fibroblast growth factor (bFGF) (Homo sapiens, UniProt P09038 P09038:143-288). Put plainly: filter; specificity control, like random RNA; TBSC. The method, then: as §3, §4
The target of data set [13] is lysozyme (egg white) (Gallus gallus, UniProt P00698 P00698:19-147). In words: filter; specificity control, like random RNA; TBSC. The conditions noted are these: tags: 6x crystallized. The method, then: as §3, §4
Data set [14] concerns the target T1, secretory phospholipase A2 (sPLA2). In words: filter; biphasic, Kd2 300 nM, mole fraction 0.40; TBSC, 37 C. The note with it: tags: supplied by Eli Lilly. The method, then: as §1, §2
Data set [15] has the same target. Put plainly: filter; biphasic, Kd2 840 nM, mole fraction 0.50; TBSC, 37 C. The conditions noted are these: tags: supplied by Eli Lilly. On the procedure:
as §1, §2

Data set [16] has the same target. In words: filter; biphasic, Kd2 450 nM, mole fraction 0.50; TBSC, 37 C. The note with it: tags: supplied by Eli Lilly. On the procedure:
as §1, §2

Data set [17] shares this target. Put plainly: filter; biphasic, Kd2 150 nM, mole fraction 0.2; conserved G replaced by U; TBSC, 37 C. The conditions noted are these: tags: supplied by Eli Lilly; hairpin with asymmetric internal loop. On the procedure:
as §1, §2

Data set [18] shares this target. Put plainly: filter; monophasic; Table V prints 1 nM; TBSC, 37 C. The conditions noted are these: tags: supplied by Eli Lilly; hairpin with asymmetric internal loop.
The target of data set [19] is T2, basic fibroblast growth factor (bFGF). In words: filter; specificity control, like random RNA; TBSC. The note with it: hairpin with asymmetric internal loop. On the procedure:
as §3
(§5) *Standard binding experiments were performed to the specified target protein in TBSC and K_d's calculated by curve fitting. The ligands bind no better than randomized RNA (30N1) to human neutrophil elastase, human basic fibroblast growth factor (bFGF), and human immunoglobulin G (IgG and C1q).

The target in data set [20] is neutrophil elastase (Homo sapiens, UniProt P08246 P08246:30-267). In words: filter; specificity control, like random RNA; TBSC. The conditions noted are these: hairpin with asymmetric internal loop. The method, then:
as §3, §5

The target in data set [21] is T1, secretory phospholipase A2 (sPLA2). In words: filter; only low-affinity Kd2 listed; 5' G removed; TBSC, 37 C. The conditions noted are these: tags: supplied by Eli Lilly.
Data set [22] shares this target. Put plainly: filter; biphasic, Kd2 310 nM, mole fraction 0.25; TBSC, 37 C. The note with it: tags: supplied by Eli Lilly. The method, then: as §1, §2
Data set [23] shares this target. Put plainly: filter; biphasic, Kd2 33 nM, mole fraction 0.55; TBSC, 37 C. The note with it: tags: supplied by Eli Lilly. On the procedure:
as §1, §2

For data set [24] the target is unchanged. In words: filter; biphasic, Kd2 1830 nM, mole fraction 0.50; TBSC, 37 C. The conditions noted are these: tags: supplied by Eli Lilly. On the procedure:
as §1, §2

The target is the same in data set [25]. Put plainly: filter; biphasic, Kd2 450 nM, mole fraction 0.35; TBSC, 37 C. The conditions noted are these: tags: supplied by Eli Lilly. The method, then: as §1, §2
Data set [26] has the same target. In words: filter; biphasic, Kd2 170 nM, mole fraction 0.30; TBSC, 37 C. The note with it: tags: supplied by Eli Lilly. On the procedure: as §1, §2

Changes are numbered by the printed parent chain. Like-named read-outs stand apart in the source and are kept apart here.

T2 sequence (P09038 143-288, one chain of several): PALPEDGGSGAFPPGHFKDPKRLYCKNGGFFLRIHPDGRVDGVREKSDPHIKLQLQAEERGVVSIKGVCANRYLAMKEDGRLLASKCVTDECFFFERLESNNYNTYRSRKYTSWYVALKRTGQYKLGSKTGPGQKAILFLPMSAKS
Sequence of lysozyme (egg white) (P00698 19-147, one chain of several): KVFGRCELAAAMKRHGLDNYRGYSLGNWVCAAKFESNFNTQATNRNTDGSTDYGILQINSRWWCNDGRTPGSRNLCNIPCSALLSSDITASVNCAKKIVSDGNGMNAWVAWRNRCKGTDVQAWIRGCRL
Sequence of pancreatic phospholipase A2 (bpPLA2) (P00593 23-145, one chain of several): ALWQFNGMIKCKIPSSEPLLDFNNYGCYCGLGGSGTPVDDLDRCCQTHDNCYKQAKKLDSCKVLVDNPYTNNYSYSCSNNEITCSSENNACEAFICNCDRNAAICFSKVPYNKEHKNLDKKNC
Sequence of neutrophil elastase (P08246 30-267, one chain of several): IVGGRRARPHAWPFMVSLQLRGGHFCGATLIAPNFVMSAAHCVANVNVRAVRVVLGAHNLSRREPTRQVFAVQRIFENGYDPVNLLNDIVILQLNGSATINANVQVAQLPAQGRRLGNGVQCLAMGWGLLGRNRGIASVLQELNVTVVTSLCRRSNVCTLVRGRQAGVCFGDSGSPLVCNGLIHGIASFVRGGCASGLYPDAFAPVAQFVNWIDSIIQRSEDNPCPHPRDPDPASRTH

B1: 60 (orphan) (ssRNA)
RNA: GGGAGCUCAGAAUAAACGCUCAAACAACGGCCCACACGGGAGAUCCGAGAAAAGUUCGACAUGAGGCCCGGAUCCGGC
As for B1, in data set [1], the dissociation constant Kd (in general, the free concentration of one partner at which half of the binding sites on the other are occupied at equilibrium, for simple one-to-one binding) was 0.3 nM.

B2: 89 (ssRNA)
RNA: GGGAGCUCAGAAUAAACGCUCAAAGUCUUACGGGUAAAGCCGAGAAAGUUUCCUUCGACAUGAGGCCCGGAUCCGGC
Molecule B2 came in with a Kd in data set [2] of 2.5 nM.

B3: 87.7 (ssRNA)
RNA: GGGAGCUCAGAAUAAACGCUCAAGCUCUGGGAUGAUGCCCACUGUCCAGCAUCUUCGACAUGUGUAGCUAAACAGCUUUAGGA
With B3, in data set [3], binding was put at a Kd of 0.8 nM.

B4: 1 (orphan) (ssRNA)
RNA: GGGAGCUCAGAAUAAACGCUCAAGCCGAACCGAAUGGAGGUGGAGGGAUUGCGUUCGACAUGAGGCCCGGAUCCGGC
The molecule B4 gave a Kd in [4] of 1.4 nM.

B5: 93 (ssRNA)
RNA: GGGAGCUCAGAAUAAACGCUCAACAGCCAAUGUGUCCCGUACGGCGUAUCCUAUUCGACAUGAGGCCCGGAUCCGGC
In data set [5], B5 registered a Kd of 17.2 nM.

B6: 95 (ssRNA)
RNA: GGGAGCUCAGAAUAAACGCUCAACGCUGGAUACCAUCGCACGGCGUAUCCUGCUUCGACAUGAGGCCCGGAUCCGGC
In the case of B6, the Kd in [6] was 4.5 nM.

B7: 35t (ssRNA)
RNA: GGGAGCUCAGAAUAAACGCUCAAGGCUGGGUCUUUUACAGGUAAAGCUGAGAAUUCGACAUGAGGCCCGGAUCCGGC
Consider B7, for which the Kd in data set [7] amounted to 2.4 nM.

B8: 85 (ssRNA)
RNA: GGGAGCUCAGAAUAAACGCUCAAAUUGCAUCAUGUACCGCAAGACGUAUUCUAUUCGACAUGAGGCCCGGAUCCGGC
For the molecule B8, the Kd in [8] amounted to 3.8 nM.

B9: 87.3 (ssRNA)
RNA: GGGAGCUCAGAAUAAACGCUCAAGCUCUGGGAUGAUGCCCACUGUCCAGCAUCUUCGACAUG
B9: in data set [9], the Kd was 0.8 nM.

B10: 87.5 (ssRNA)
RNA: GGGAGCUAUAAACGCAGCUCUGGGAUGAUGCCCACUGUCCAGCAUCUUCGACAUG
In data set [10], B10 registered a Kd of 3.1 nM.

B11: 80 (ssRNA)
RNA: GGGAGCUCAGAAUAAACGCUCAAGCUCUGGGAUGAUGCCCAGUGUCCAGCAUCUUCGACAUGAGGCCCGGAUCCGGC
In the case of B11, the Kd is 29000 nM in data set [11], 240 nM in data set [12], 2700 nM in [13] and 1.6 nM in data set [14].

B12: 87F (ssRNA)
RNA: B11 RNA with G42C
modifications: 2'-F all C and U
In data set [15], B12 showed a Kd of 1.2 nM.

B13: 87 (ssRNA)
RNA: B11 RNA with G42C
As for B13, the Kd is 20000 nM in [11], 220 nM in data set [12], 2300 nM in [13] and 0.8 nM in data set [16].

B14: NN27 (ssRNA)
RNA: GGGAAAAGCGAAUCAUACACAAGACCGGCCGGGGAAACCCGAGGUCCGAUGUAACGCAUGGCGCCUCACCGAGUCGCUCCGCCAGAGACCAACCGAGAA
modifications: 2'-NH2 all C and U
As for B14, in data set [17], the affinity, expressed as Kd, was 0.4 nM.

B15: NN19 (ssRNA)
RNA: GGGAAAAGCGAAUCAUACACAAGACCGGCCGGCGCCAUAGCCGAGAUCCGAGGUGUUGAACGAUAACUCGGUGCUCCGCCAGAGACCAACCGAGAA
modifications: 2'-NH2 all C and U
Consider B15, for which the values for the Kd in data set [18], in data set [19] and in data set [20] were 0.4 nM, 210 nM and 40 nM, respectively.

B16: 87.4 (ssRNA)
RNA: GGAGCUCAGAAUAAACGCUCAAGCUCUGGGAUGAUGCCCACUGUCCAGCAUCUUCGACAUG
Take B16: the Kd in [21] amounted to 4350 nM.

B17: 9t (ssRNA)
RNA: GGGAGCUCAGAAUAAACGCUCAACACGGGGGUGGGUGGGUGGCCGAGCGCUUGUUCGACAUGAGGCCCGGAUCCGGC
For the molecule B17, in [22], the Kd amounted to 39.4 nM.

B18: 3 (ssRNA)
RNA: GGGAGCUCAGAAUAAACGCUCAAAGCUCAUCGUCUCGCAAGGCGUAUCCUAUUUCGACAUGAGGCCCGGAUCCGGC
Take B18: in [23], the affinity, expressed as Kd, was 1.9 nM.

B19: 6t (ssRNA)
RNA: GGGAGCUCAGAAUAAACGCUCAAUGCCUCAUGCCAAUGUGGGAGGGUGGGUGGUUCGACAUGAGGCCCGGAUCCGGC
B19 came in with a Kd in [24] of 28 nM.

B20: 86t (ssRNA)
RNA: B19 RNA with U24C, U39C
In turn, B20 yielded a Kd in [25] of 2.8 nM.

B21: 83t (ssRNA)
RNA: B19 RNA with U24C, U37C, G45C
B21 showed a Kd in data set [26] of 10.5 nM.
